Measured values reported in US20170291942A1.

Target: IL-6 protein (human) (UniProt P05231)
Assay: Luminex based assay, biotin-IL-6 binding to solid phase sIL-6R/gp80

Sequence of UniProt P05231 (P05231 30-212 limits assumed): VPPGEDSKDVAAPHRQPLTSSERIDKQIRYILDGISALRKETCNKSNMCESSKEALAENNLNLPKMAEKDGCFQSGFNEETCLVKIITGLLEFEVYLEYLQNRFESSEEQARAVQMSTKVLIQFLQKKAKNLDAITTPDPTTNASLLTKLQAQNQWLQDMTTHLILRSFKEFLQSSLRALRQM

A percent inhibition of bound biotin-IL-6 of 62% was found for CLB.IL-6/16 (antibody) in this work.
